Laboratory results taken from patent US20250289893A1 (OXFORD UNIVERSITY INNOVATION, published 2025).

Legend:
[1] = target: T1, Cynomolgus monkey CD1a protein (Cynomolgus monkey); experiment: ELISA, 1 µg/ml antibody
T1 chain: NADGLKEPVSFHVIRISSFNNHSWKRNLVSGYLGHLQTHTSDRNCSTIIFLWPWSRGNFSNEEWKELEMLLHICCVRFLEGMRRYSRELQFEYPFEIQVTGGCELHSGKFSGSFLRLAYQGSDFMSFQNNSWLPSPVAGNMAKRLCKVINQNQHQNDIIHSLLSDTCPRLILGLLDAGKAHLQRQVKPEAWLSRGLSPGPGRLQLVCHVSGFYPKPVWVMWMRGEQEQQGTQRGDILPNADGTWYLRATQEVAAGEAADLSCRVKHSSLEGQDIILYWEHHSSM

[2] = target: T1, Cynomolgus monkey CD1a protein; experiment: ELISA, 10 µg/ml antibody
[3] = target: T2, human CD1a protein (pool B) (human, UniProt P06126 18-295, limits assumed); experiment: ELISA, 100 µg/ml antibody
T2 construct: Recombinant protein of the ELISA (coated) and the Biacore T200 titration; whole entry named; also called human CD1a pool B; full length CD1a
T2 sequence (P06126 18-295 limits assumed): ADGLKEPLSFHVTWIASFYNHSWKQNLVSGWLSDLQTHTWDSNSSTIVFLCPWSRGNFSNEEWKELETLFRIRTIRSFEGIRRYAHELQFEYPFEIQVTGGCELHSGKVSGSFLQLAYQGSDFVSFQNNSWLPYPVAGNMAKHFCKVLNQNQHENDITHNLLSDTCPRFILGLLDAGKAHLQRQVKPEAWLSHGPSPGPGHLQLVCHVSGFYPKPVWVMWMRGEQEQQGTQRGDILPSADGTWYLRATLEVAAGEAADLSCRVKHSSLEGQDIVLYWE
Experimental: (§1) CD1a-specific antibodies were identified by ELISA. […] 20 μl/well of peroxidase-conjugated goat anti-species IgG Fc-specific F(ab′)2 fragment (Jackson ImmunoResearch), diluted 1:5000 in block buffer was added and incubated at room temperature for 1 hour, followed by washing with wash buffer.
The antibodies were titrated through a dilution series and compared to a control rabbit IgG antibody.

[4] = target: T3, chimeric CD1a pool B protein [human CD1a lipid binding domain, mouse CD1d Ig domain] (human; mouse, UniProt P06126 18-201; P11609 205-297, limits assumed); experiment: ELISA, 100 µg/ml antibody
T3 sequence (P06126 other isoform, or with tags, fused parts or gaps mutant limits assumed): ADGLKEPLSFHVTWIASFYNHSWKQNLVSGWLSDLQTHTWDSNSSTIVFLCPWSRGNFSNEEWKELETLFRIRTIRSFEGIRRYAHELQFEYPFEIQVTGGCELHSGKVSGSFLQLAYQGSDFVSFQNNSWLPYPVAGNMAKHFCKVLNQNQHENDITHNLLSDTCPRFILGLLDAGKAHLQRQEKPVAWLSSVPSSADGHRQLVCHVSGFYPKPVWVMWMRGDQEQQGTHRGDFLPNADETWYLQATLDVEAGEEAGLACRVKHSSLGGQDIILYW
Experimental: as §1
(§2) The antibodies were titrated through a dilution series and compared to a control rabbit IgG antibody. […] Data shown for purified antibodies.

[5] = target: T3, chimeric CD1a pool B protein [human …; experiment: ELISA, 3.16 µg/ml antibody
Experimental: as §1, §2

[6] = target: T3, chimeric CD1a pool B protein [human …; experiment: ELISA, 0.316 µg/ml antibody
Experimental: as §1, §2

[7] = target: T4, human CD1b expressed on HEK-293 cells (human, UniProt P29016 18-333; P61769 21-119); experiment: flow cytometry, HEK-293 cells
T4 construct: also called HEK - CD1b
Experimental: (§3) Binding to proteins expressed on HEK, C1R and MOLT4 cell lines was assessed. […] The C1R-CD1a, C1R-empty vector and MOLT4 cell lines were washed in 1×PBS on the day required. All cell lines were counted and resuspended in 1×PBS and then stained for 30 minutes at 37° C. using the DiI or DiO cellular stains (Invitrogen). Cells were washed with flow cytometry buffer (1% bovine serum albumin, 2 mM EDTA and 0.1% sodium azide in PBS) before mixing 2 DiI-stained and DiO-stained populations together. The cells (20 μl/well) were then added to dilutions of antibody sample (B cell culture supernatant, TAP supernatant, clone supernatant, purified antibody solution) (20 μl/well) and incubated for 1 hour at 4° C. in a flow cytometry assay plate, before being washed with flow cytometry buffer. 10 μl/well of Alexafluor647-conjugated goat anti-species IgG Fc-specific F(ab′)2 fragment (Jackson ImmunoResearch), diluted 1:2500 in flow cytometry buffer, was added and incubated at 4° C. for 30 minutes, followed by washing with wash buffer. The fluorescence intensity was then measured on an iQue screener PLUS.
(§4) HEK-293 cells were transiently transfected with human CD1a, CD1b, CD1c or CD1d and co-transfected with human β2M.

[8] = target: T5, human CD1c expressed on HEK-293 cells (human, UniProt P29017 18-333; P61769 21-119); experiment: flow cytometry, HEK-293 cells
T5 construct: also called HEK - CD1c
Experimental: as §3, §4

[9] = target: T6, human CD1d expressed on HEK-293 cells (human, UniProt P15813 20-335; P61769 21-119); experiment: flow cytometry, HEK-293 cells
T6 construct: also called HEK - CD1d
Experimental: as §3, §4

[10] = target: T7, human CD1a expressed on cells (human, UniProt P06126 17-327; P61769 21-119); experiment: flow cytometry, C1R cells, 100 µg/ml antibody
T7 construct: also called HEK - CD1a; C1R - CD1a
Experimental: as §3
(§5) Binding was quantified as fold change in fluorescence intensity geomean over background assessed by flow cytometry.

[11] = target: T7, human CD1a expressed on cells; experiment: flow cytometry, HEK-293 cells, 1 µg/ml antibody
Experimental: as §3, §4

[12] = target: T4, human CD1b expressed on HEK-293 cells; experiment: flow cytometry, HEK-293 cells, 1 µg/ml antibody
Experimental: as §3, §4

[13] = target: T5, human CD1c expressed on HEK-293 cells; experiment: flow cytometry, HEK-293 cells, 1 µg/ml antibody
Experimental: as §3, §4

[14] = target: T6, human CD1d expressed on HEK-293 cells; experiment: flow cytometry, HEK-293 cells, 1 µg/ml antibody
Experimental: as §3, §4

[15] = target: T7, human CD1a expressed on cells; experiment: flow cytometry, MOLT4 cells, 100 µg/ml antibody
Experimental: (§6) CD1a-specific antibodies were identified by flow cytometry. Binding to proteins expressed on HEK, C1R and MOLT4 cell lines was assessed. […] The C1R-CD1a, C1R-empty vector and MOLT4 cell lines were washed in 1×PBS on the day required. All cell lines were counted and resuspended in 1×PBS and then stained for 30 minutes at 37° C. using the DiI or DiO cellular stains (Invitrogen). Cells were washed with flow cytometry buffer (1% bovine serum albumin, 2 mM EDTA and 0.1% sodium azide in PBS) before mixing 2 DiI-stained and DiO-stained populations together. The cells (20 μl/well) were then added to dilutions of antibody sample (B cell culture supernatant, TAP supernatant, clone supernatant, purified antibody solution) (20 μl/well) and incubated for 1 hour at 4° C. in a flow cytometry assay plate, before being washed with flow cytometry buffer. 10 μl/well of Alexafluor647-conjugated goat anti-species IgG Fc-specific F(ab′)2 fragment (Jackson ImmunoResearch), diluted 1:2500 in flow cytometry buffer, was added and incubated at 4° C. for 30 minutes, followed by washing with wash buffer. The fluorescence intensity was then measured on an iQue screener PLUS.
as §5

[16] = target: Cynomolgus monkey CD1a expressed on HEK-293 cells (Cynomolgus monkey, UniProt A0A2K5VQ68 17-326); experiment: flow cytometry, HEK-293 cells, 0.1 µg/ml antibody
Cynomolgus monkey CD1a expressed on HEK-293 cells, sequence (A0A2K5VQ68 entry or part of it): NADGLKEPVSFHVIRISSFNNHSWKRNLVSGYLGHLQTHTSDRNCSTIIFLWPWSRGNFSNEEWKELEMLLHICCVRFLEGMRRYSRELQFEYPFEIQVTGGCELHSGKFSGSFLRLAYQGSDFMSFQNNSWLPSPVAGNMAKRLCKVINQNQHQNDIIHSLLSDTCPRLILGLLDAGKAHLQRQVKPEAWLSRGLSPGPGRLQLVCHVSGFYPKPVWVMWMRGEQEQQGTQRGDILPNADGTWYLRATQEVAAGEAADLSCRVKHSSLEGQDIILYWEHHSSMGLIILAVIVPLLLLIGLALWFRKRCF
Experimental: as §3, §5

[17] = target: T7, human CD1a expressed on cells; experiment: flow cytometry, HEK-293 cells, 3.16 µg/ml antibody
Experimental: as §3, §4

[18] = target: T4, human CD1b expressed on HEK-293 cells; experiment: flow cytometry, HEK-293 cells, 3.16 µg/ml antibody
Experimental: as §3, §4

[19] = target: T5, human CD1c expressed on HEK-293 cells; experiment: flow cytometry, HEK-293 cells, 3.16 µg/ml antibody
Experimental: as §3, §4

[20] = target: T6, human CD1d expressed on HEK-293 cells; experiment: flow cytometry, HEK-293 cells, 3.16 µg/ml antibody
Experimental: as §3, §4

[21] = target: T7, human CD1a expressed on cells; experiment: flow cytometry, MOLT4 cells, 0.0316 µg/ml antibody
Experimental: as §6, §5

[22] = target: T7, human CD1a expressed on cells; experiment: flow cytometry, HEK-293 cells, 0.316 µg/ml antibody
Experimental: as §3, §4

[23] = target: T4, human CD1b expressed on HEK-293 cells; experiment: as above
Experimental: as §3, §4

[24] = target: T5, human CD1c expressed on HEK-293 cells; experiment: as above
Experimental: as §3, §4

[25] = target: T6, human CD1d expressed on HEK-293 cells; experiment: as above
Experimental: as §3, §4

B1: 116 (VR12117) (antibody, V domains shown)
VH: QSVEESGGRLVTPGTPLTLTCTVSGFSLSNYAMSWVRQAPGKGLEWIGIIYTTGFTYYASWVKGRFTISKTSTTVDLKITSPTTEDTATYFCARGLATYVSPPTRLDLWGQGTLVTVSS
VL: AQVLTQTPSPVSAAVGGTVTINCQASQSIYNSKNLAWYQQKPGQPPKLLIYSASTLASGVPSRFKGSGSGTQFTLTISDLECDDAATYYCQGEFSCSSVDCATFGGGTEVVVK
notes: also called OX116
Optical Density (OD) [1]: 0.14 OD
Optical Density (OD) [2]: 0.16 OD
Optical Density (OD) [3]: 1.15 OD
Optical Density (OD) [4]: 1.37 OD
Optical Density (OD) [5]: 1.38 OD
Optical Density (OD) [6]: 1.32 OD
binding result [7]: no binding (tested: 100 µg/ml (highest tested))
binding result [8]: no binding (tested: 100 µg/ml (highest tested))
binding result [9]: no binding (tested: 100 µg/ml (highest tested))
Fluorescence Intensity Geomean (normalized to background) [10]: 11.9 fold over background
Fluorescence Intensity Geomean (normalized to background) [11]: 48.2 fold over background
Fluorescence Intensity Geomean (normalized to background) [12]: 1.1 fold over background
Fluorescence Intensity Geomean (normalized to background) [13]: 1.1 fold over background
Fluorescence Intensity Geomean (normalized to background) [14]: 1 fold over background
Fluorescence Intensity Geomean (normalized to background) [15]: 3.7 fold over background
Fluorescence Intensity Geomean (normalized to background) [16]: 1 fold over background
Fluorescence Intensity Geomean (normalized to background) [17]: 21.9 fold over background
Fluorescence Intensity Geomean (normalized to background) [18]: 1 fold over background
Fluorescence Intensity Geomean (normalized to background) [19]: 1.1 fold over background
Fluorescence Intensity Geomean (normalized to background) [20]: 1.1 fold over background
Fluorescence Intensity Geomean (normalized to background) [21]: 14.9 fold over background
Fluorescence Intensity Geomean (normalized to background) [22]: 36.5 fold over background
Fluorescence Intensity Geomean (normalized to background) [23]: 1 fold over background
Fluorescence Intensity Geomean (normalized to background) [24]: 1.1 fold over background
Fluorescence Intensity Geomean (normalized to background) [25]: 1 fold over background
